Assay results published in PMC6987454.
“And” between values parts separate entries of the source, which are not always exact repeats. Equal entries are not always repeated.

Tests used:
[1] = molecular target: AtCGE1 (Arabidopsis chloroplast GrpE homologue 1), mature region, 6xHis-tagged (Arabidopsis); assay: pull-down; AtCGE1-6xHis and tag-free AtCGE2 co-expressed in E. coli BL21(DE3); crude protein extract bound to Talon beads, stringent wash, elution; bands seen on PAGE
[2] = molecular target: AtCGE2 (Arabidopsis chloroplast GrpE homologue 2), mature region, 6xHis-tagged (Arabidopsis); assay: cross-linking; 5 uM purified protein in common buffer [25 mM Hepes-KOH (pH 7.8), 5 mM MgCl2, 5 mM DTT] crosslinked with glutaraldehyde at 0.05, 0.1 and 0.2% for 10 min; 4-12% SDS-PAGE and CBR staining
[3] = molecular target: AtCGE1 (Arabidopsis chloroplast GrpE homologue 1), mature region, 6xHis-tagged (Arabidopsis); assay: as above

Chain of AtCGE1 (Arabidopsis chloroplast GrpE homologue 1), mature region, 6xHis-tagged (Arabidopsis) (main, as listed by the source): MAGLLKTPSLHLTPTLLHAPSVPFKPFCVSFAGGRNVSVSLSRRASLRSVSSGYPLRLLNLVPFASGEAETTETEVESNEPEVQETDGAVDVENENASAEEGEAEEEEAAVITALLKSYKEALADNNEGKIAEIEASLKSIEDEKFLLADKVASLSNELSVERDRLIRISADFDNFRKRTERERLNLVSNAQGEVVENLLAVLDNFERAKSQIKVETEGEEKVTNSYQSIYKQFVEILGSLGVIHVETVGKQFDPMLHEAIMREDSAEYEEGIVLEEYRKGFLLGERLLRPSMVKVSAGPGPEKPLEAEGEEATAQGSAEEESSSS

Substance “AtCGE2 (Arabidopsis chloroplast GrpE homologue 2), mature region, tag-free, co-expressed with AtCGE1-6xHis (natural protein)” has a stoichiometry N [1] of 1 molar ratio.
For “AtCGE2 (Arabidopsis chloroplast GrpE homologue 2), mature region, 6xHis-tagged (natural protein)”, the stoichiometry N [2] was 2 and 4.
With “AtCGE1 (Arabidopsis chloroplast GrpE homologue 1), mature region, 6xHis-tagged (natural protein)” the stoichiometry N [3] was 2 and 4.
